From IntAct's records for PubMed 29892012

Biological target: T1, bend5_human BEND5 (UniProt Q7L4P6)
T1 sequence: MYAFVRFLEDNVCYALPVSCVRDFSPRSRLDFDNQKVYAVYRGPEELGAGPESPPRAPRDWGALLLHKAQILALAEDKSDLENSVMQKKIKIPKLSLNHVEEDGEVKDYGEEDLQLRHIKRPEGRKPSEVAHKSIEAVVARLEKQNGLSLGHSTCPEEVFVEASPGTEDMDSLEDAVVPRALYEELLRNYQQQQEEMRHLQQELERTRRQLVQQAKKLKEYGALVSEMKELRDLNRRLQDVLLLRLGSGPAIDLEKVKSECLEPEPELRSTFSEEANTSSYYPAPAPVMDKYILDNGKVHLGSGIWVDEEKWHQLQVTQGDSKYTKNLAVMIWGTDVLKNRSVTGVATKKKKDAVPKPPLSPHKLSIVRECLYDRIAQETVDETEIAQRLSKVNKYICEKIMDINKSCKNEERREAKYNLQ

effect of a mutation on the interaction: with no effect
Substance: Golgi reassembly-stacking protein 2 (Homo sapiens) (from UniProt Q9H8Y8) L320R
